Reference: patent US6562591 (RIGEL PHARMACEUTICALS, dated 2003)

What was measured:
Experiment in all cases: co-immunoprecipitation: anti-HA IP, anti-FLAG blot, Phoenix-A cell lysates
[1] = target: T1, HA-Tnik(WT), full length human Tnik isoform 1 with N-terminal HA epitope tag (human, UniProt Q9UKE5 1-1360)
T1 construct: Expressed transiently in Phoenix-A cells and immunoprecipitated from lysate; also called Tnik1
Description: (§1) Washed precipitates were subjected to SDS-PAGE analysis and Western blotting. Supersignal and Supersignal West Duro substrates (Piers) were used as detection systems for the Western blotting.
(§2) Interaction of Tnik with TRAF2 and NCK—To confirm the interaction of Tnik with TRAF2, N-terminal HA-tagged Tnik was transiently expressed in Phoenix-A cells and HA-Tnik was immunoprecipitated by an anti-HA antibody. The immune complexes were resolved on SDS-PAGE and immunoblotted with an anti-TRAF2 antibody. Endogenous TRAF2 specifically co-immunoprecipitated with HA-Tnik (FIG. 6, top panel). To map the interaction domain on Tnik that mediated its interaction with TRAF2, we constructed several truncated forms of HA-tagged Tnik (FIG. 7) and co-expressed them with FLAG-tagged TRAF2. Anti-HA immunoprecipitates were then blotted with an anti-FLAG antibody to detect the co-immunoprecipitated FLAG-TRAF2. […] Expression levels of the transfected proteins were controlled by immunoblotting cell lysates with anti-HA and anti-FLAG antibodies (FIG. 8, middle and bottom panels).
(§3) We then mapped the domains on TRAF2 that mediated the interaction with Tnik. FLAG-tagged TRAF2 mutants (FIG. 9) were co-expressed with HA-Tnik and the lysates were subjected to anti-HA immunoprecipitation. The immune complexes were then blotted with an anti-FLAG antibody.

[2] = target: T2, FLAG-NCK, full length human NCK with N-terminal FLAG epitope tag (human, UniProt P16333 2-377)
T2 construct: mature; also called FLAG-tagged NCK
Description: as §1, §2, §3

[3] = target: T3, FLAG-TRAF2, full length human Traf2 with N-terminal FLAG epitope tag (human, UniProt Q12933 2-501)
T3 construct: mature; also called FLAG-tagged TRAF2; TRAF2(WT)
T3 sequence: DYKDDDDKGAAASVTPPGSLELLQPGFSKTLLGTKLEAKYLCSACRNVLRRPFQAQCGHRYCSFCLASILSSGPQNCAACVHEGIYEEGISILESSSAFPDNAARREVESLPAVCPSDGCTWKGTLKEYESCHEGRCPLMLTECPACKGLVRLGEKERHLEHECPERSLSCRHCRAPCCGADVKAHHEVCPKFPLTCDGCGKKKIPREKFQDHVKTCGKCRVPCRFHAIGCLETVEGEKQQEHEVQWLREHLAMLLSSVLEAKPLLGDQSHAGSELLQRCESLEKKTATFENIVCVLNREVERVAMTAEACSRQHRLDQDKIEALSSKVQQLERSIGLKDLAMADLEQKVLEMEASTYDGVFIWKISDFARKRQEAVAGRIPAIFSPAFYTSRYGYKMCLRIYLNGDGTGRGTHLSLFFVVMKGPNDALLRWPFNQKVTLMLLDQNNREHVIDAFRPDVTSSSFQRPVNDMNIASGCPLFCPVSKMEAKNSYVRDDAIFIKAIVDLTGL
Description: as §1, §2, §3

B1: FLAG-TRAF2(1-272) (other, human)
chain: DYKDDDDKGMAAASVTPPGSLELLQPGFSKTLLGTKLEAKYLCSACRNVLRRPFQAQCGHRYCSFCLASILSSGPQNCAACVHEGIYEEGISILESSSAFPDNAARREVESLPAVCPSDGCTWKGTLKEYESCHEGRCPLMLTECPACKGLVRLGEKERHLEHECPERSLSCRHCRAPCCGADVKAHHEVCPKFPLTCDGCGKKKIPREKFQDHVKTCGKCRVPCRFHAIGCLETVEGEKQQEHEVQWLREHLAMLLSSVLEAKPLLGDQSHAGSELLQRC
binding result [1]: no binding

B2: HA-Tnik(N1), Tnik mutant with only the kinase domain (enzyme)
chain: AYPYDVPDYAMASDSPARSLDEIDLSALRDPAGIFELVELVGNGTYGQVYKGRHVKTGQLAAIKVMDVTGDEEEEIKQEINMLKKYSHHRNIATYYGAFIKKNPPGMDDQLWLVMEFCGAGSVTDLIKNTKGNTLKEEWIAYICREILRGLSHLHQHKVIHRDIKGQNVLLTENAEVKLVDFGVSAQLDRTVGRRNTFIGTPYWMAPEVIACDENPDATYDFKSDLWSLGITAIEMAEGAPPLCDMHPMRALFLIPRNPAPRLKSKKWSKKFQSFIESCLVKNHSQRPATEQLMKHPFIRDQPNERQVRIQLKDH
binding result [2]: no binding | binding result [3]: no binding

B3: HA-Tnik(C2), GCKH domain of Tnik (other)
chain: AYPYDVPDYARKISVVNVNPTNIRPHSDTPEIRKYKKRFNSEILCAALWGVNLLVGTENGLMLLDRSGQGKVYNLINRRRFQQMDVLEGLNVLVTISGKKNKLRVYYLSWLRNRILHNDPEVEKKQGWITVGDLEGCIHYKVVKYERIKFLVIALKNAVEIYAWAPKPYHKFMAFKSFADLQHKPLLVDLTVEEGQRLKVIFGSHTGFHVIDVDSGNSYDIYIPSHIQGNITPHAIVILPKTDGMEMLVCYEDEGVYVNTYGRITKDVVLQWGEMPTSVAYIHSNQIMGWGEKAIEIRSVETGHLDGVFMHKRAQRLKFLCERNDKVFFASVRSGGSSQVFFMTLNRNSMMNW
binding result [2]: no binding
